These results are taken from patent publication US20220048993A1.

The assay concerns the target truncated human FcRH5 (deletion of amino acids 1-744) with N-terminal gD tag (human) (UniProt Q96RD9). The experiment in a line: cell-based or functional assay.

Sequence of truncated human FcRH5 (deletion of amino acids 1-744) with N-terminal gD tag (human) (Q96RD9 745-977, stated change not applied): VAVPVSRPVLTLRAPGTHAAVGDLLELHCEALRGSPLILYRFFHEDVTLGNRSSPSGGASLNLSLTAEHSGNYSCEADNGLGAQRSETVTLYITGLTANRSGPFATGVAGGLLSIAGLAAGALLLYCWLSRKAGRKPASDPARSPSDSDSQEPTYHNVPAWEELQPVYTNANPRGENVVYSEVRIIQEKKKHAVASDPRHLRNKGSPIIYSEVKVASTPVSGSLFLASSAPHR

On to “anti-gD/UCHT1.v9 TDB (bispecific antibody)”, for which the target cell killing, EC50 was 0.19 nM.
